Values of other authors as cited in paper PMC4954776.

Molecular target: BRAF kinase domain 448-723 (Homo sapiens) (UniProt P15056)
Assay: sedimentation equilibrium

Chain of BRAF kinase domain 448-723 (P15056 448-723): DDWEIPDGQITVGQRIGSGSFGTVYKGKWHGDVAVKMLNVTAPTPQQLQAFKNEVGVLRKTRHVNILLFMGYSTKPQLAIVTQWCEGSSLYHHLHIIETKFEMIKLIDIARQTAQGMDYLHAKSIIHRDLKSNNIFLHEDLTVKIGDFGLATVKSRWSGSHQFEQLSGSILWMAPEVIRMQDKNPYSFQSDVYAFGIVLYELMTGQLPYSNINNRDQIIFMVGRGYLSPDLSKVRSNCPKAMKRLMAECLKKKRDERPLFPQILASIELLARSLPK

In the case of “BRAF kinase domain 448-723 (from UniProt P15056)”, the Kd is listed as less than 6.25 µM.
